From US7618787B2, “Method of screening compound capable of accelerating or inhibiting apoptosis, apoptosis accelarator and apoptosis inhibitor” (Hisamitsu Pharmaceutical Co., Inc., priority 2004, dated 2009)

Experiments:
p53 = experiment: Luciferase reporter assay, p53-dependent transcriptional activation in H1299 cells; format: cell-based, human; details: H1299, coexpression with p53 (FIG. 22)
Procedure: (§1) H1299 cells deficient in p53 were seeded at a density of 5×10^4 cells/well onto a 12-well tissue culture dish and transiently transfected with 100 ng of luciferase reporter construct (which carried a p53/p73-responsive element derived from a p21^WAF1, Bax, or MDM2 promoter), 10 ng of pRL-TK Renilla luciferase cDNA, and 25 ng of given expression plasmid (p53, HA-p73α, or HA-p73β) together with or without varying amounts of IKK-α or FLAG-IKK-β expression plasmids. The total amount of DNA per transfection was kept constant (510 ng) with a pcDNA3 empty plasmid. After 48 hours from the transfection, the cells were washed twice with ice-cold PBS and suspended in passive lysis buffer (Promega). Both firefly and Renilla luciferase activities were assayed by use of dual-luciferase reporter assay system (Promega) according to the instruction. […] intensity was measured with TD-20 luminometer (Turner Design). The firefly luciferase signal was normalized based on the Renilla luciferase signal. Results obtained from at least 3 transfections were indicated by mean value±standard deviation.
To explore the functional implication of interaction between IKK-α and p73, the effect of IKK-α on p73-mediated transcriptional activation was first examined. […]

p73 = experiment: Luciferase reporter assay, p73-dependent transcriptional activation in H1299 cells; format: cell-based, human
Procedure: as §1
To explore the functional implication of interaction between IKK-α and p73, the effect of IKK-α on p73-mediated transcriptional activation was first examined. H1299 cells deficient in p53 were transfected with a HA-p73α or HA-p73β expression plasmid and a luciferase reporter construct under the control of a p21^WAF1, Bax, or MDM2 promoter together with or without varying amounts of IKK-α expression plasmids. […] By contrast, increase in p53-responsive reporter gene activity was not induced by IKK-α (FIG. 22). To examine the specificity of p73-dependent transcriptional activation mediated by IKK-α, whether IKK-β enhanced p73 transcriptional activity to p53/p73-responsive promoters was confirmed.

HA-p73α = biological target: T1, HA-p73α (Homo sapiens, UniProt O15350); experiment: Ubiquitination assay in COS7 cells; format: cell-based; details: COS7, HA-p73α and HA-ubiquitin, MG-132 (FIG. 18, 19)
T1 construct: expressed in transfected cells; host or cells: COS7
T1 sequence (O15350 1-636): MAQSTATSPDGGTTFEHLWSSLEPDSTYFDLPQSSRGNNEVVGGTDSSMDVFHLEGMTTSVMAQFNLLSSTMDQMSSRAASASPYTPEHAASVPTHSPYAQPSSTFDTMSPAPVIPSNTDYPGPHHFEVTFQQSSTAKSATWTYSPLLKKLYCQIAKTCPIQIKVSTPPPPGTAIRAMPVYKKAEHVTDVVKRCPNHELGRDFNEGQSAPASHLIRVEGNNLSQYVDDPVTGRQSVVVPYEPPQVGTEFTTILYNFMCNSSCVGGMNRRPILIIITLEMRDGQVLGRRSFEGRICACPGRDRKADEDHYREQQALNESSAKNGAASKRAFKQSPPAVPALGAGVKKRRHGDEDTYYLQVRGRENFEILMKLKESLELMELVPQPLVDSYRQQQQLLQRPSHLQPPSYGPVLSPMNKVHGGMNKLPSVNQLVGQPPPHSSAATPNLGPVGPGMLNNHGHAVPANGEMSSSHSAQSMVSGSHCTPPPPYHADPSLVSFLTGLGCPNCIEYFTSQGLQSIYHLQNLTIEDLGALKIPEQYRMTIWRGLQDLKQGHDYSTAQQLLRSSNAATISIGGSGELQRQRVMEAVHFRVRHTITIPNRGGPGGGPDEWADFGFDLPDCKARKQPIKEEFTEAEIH
Procedure: COS7 cells were transiently transfected with a constant amount of expression plasmids encoding HA-p73α and HA-Ub in the presence or absence of varying amounts of IKK-α expression plasmids. After […] from the transfection, the cells were exposed for 6 hours to a proteasome inhibitor MG-132 (final concentration: 20 μM), and lysates from the whole cells were first subjected to immunoprecipitation with an anti-p73 monoclonal antibody and then to immunoblot using an anti-HA monoclonal antibody (12CA5; Roche Molecular Biochemicals) to analyze ubiquitination levels.
As described by Lee, C.-W. et al., Oncogene 18: 4171-4181 (1999), the steady-state level of p73 was regulated at least partially by the proteolytic process through the ubiquitin-proteasome pathway. Whether IKK-α inhibited the ubiquitination of p73 was investigated. COS7 cells were transfected with expression plasmids for HA-p73α and HA-ubiquitin together with or without varying amounts of IKK-α or FLAG-IKK-β expression plasmids. After 48 hours of the transfection, lysates from the whole cells were analyzed by immunoprecipitation and immunoblot and examined for the presence of p73α containing HA-ubiquitin.

B1: IKK-α: IKK-α protein, amino acid sequence SEQ ID NO: 24, expressed from plasmid; apoptosis enhancer (protein, listed as Homo sapiens)
chain: MERPPGLRPGAGGPWEMRERLGTGGFGNVCLYQHRELDLKIAIKSCRLELSTKNRERWCHEIQIMKKLNHANVVKACDVPEELNILIHDVPLLAMEYCSGGDLRKLLNKPENCCGLKESQILSLLSDIGSGIRYLHENKIIHRDLKPENIVLQDVGGKIIHKIIDLGYAKDVDQGSLCTSFVGTLQYLAPELFENKPYTATVDYWSFGTMVFECIAGYRPFLHHLQPFTWHEKIKKKDPKCIFACEEMSGEVRFSSHLPQPNSLCSLIVEPMENWLQLMLNWDPQQRGGPVDLTLKQPRCFVLMDHILNLKIVHILNMTSAKIISFLLPPDESLHSLQSRIERETGINTGSQELLSETGISLDPRKPASQCVLDGVRGCDSYMVYLFDKSKTVYEGPFASRSLSDCVNYIVQDSKIQLPIIQLRKVWAEAVHYVSGLKEDYSRLFQGQRAAMLSLLRYNANLTKMKNTLISASQQLKAKLEFFHKSIQLDLERYSEQMTYGISSEKMLKAWKEMEEKAIHYAEVGVIGYLEDQIMSLHAEIMELQKSPYGRRQGDLMESLEQRAIDLYKQLKHRPSDHSYSDSTEMVKIIVHTVQSQDRVLKELFGHLSKLLGCKQKIIDLLPKVEVALSNIKEADNTVMFMQGKRQKEIWHLLKIACTQSSARSLVGSSLEGAVTPQTSAWLPPTSAEHDHSLSCVVTPQDGETSAQMIEENLNCLGHLSTIIHEANEEQGNSMMNLDWSWLTE
Which “p53-responsive reporter gene activity” value (p53) does the source give for B1 here?
The value was “not induced”.

What about the “luciferase activity without p73” value (p73; H1299, IKK-α alone) of the same molecule?
Its value is “almost no effect on luciferase activity”.

What about the “p73-dependent transcriptional activation of p21WAF1, Bax, MDM2 promoter reporters” value (p73; H1299, coexpression with HA-p73α or HA-p73β (FIG. 20, 21, 23)) of the same molecule?
Its value is “Remarkable increase in p73-dependent transcriptional activation was dose-dependently observed”.

And the “induction of endogenous p21WAF1 mediated by p73α” value (p73; H1299, immunoblot (FIG. 24))?
The value was “remarkably up-regulated”.

What about the “amount of ubiquitinated p73α” value (HA-p73α) of the same molecule?
Its value is “decreased”.
